Experimental data published in paper PMC3021122.

Tests used:
[1] = biological target: T1, Shigella flexneri Spa15 (residues 1-133), N-terminal His tag, unlabelled (Shigella flexneri), P35530; test: multi-angle laser light scattering; co-purified Spa15:IpgB1 complex; data not shown; conditions: remark: other sources report otherwise
T1 chain: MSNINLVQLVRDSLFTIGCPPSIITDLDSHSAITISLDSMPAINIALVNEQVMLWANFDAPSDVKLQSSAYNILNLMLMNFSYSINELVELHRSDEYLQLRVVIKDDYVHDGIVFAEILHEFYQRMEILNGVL

[2] = biological target: T1, Shigella flexneri Spa15 (residues …); test: SEC; HiLoad 26/60 Superdex 75, 20 mM Tris-HCl (pH 7.5), 150 mM NaCl; Spa15 alone; conditions: remark: other sources report otherwise

B1: Shigella flexneri Spa15 (residues 1-133), N-terminal His tag, unlabelled, P35530 1-133 (natural protein)
chain: T1 chain
stoichiometry N [1]: 2
stoichiometry N [2]: 2
